Assay results: PMC4538796

Columns and labels:
[1] = molecular target: brH (GCN4 basic region/AT-Hook conjugate) (UniProt P03069); assay: fluorescence anisotropy; conditions: 20 C; 25 nM DNA; apparent; Anisotropy (given for GAGAH): 20 mM Tris-HCl pH 7.5, 100 mM NaCl, 0.02 mM ZnCl2, 20 C, 25 nM TMR-DNA; EMSA: 75 nM dsDNA, rt (GAGAH), 10% native PAGE, 0.5x TBE …
[2] = molecular target: GAGAH (GAGA zinc finger/AT-Hook conjugate) (UniProt Q08605); assay: fluorescence anisotropy; conditions: Zn2+, Anisotropy (given for GAGAH): 20 mM Tris-HCl pH 7.5, 100 mM NaCl, 0.02 mM ZnCl2, 20 C, 25 nM TMR-DNA, EMSA: 75 nM dsDNA, rt (GAGAH), 10% native PAGE, 0.5x TBE …
Chain of UniProt Q08605 (Q08605 other isoform, or with tags, fused parts or gaps, change not shown): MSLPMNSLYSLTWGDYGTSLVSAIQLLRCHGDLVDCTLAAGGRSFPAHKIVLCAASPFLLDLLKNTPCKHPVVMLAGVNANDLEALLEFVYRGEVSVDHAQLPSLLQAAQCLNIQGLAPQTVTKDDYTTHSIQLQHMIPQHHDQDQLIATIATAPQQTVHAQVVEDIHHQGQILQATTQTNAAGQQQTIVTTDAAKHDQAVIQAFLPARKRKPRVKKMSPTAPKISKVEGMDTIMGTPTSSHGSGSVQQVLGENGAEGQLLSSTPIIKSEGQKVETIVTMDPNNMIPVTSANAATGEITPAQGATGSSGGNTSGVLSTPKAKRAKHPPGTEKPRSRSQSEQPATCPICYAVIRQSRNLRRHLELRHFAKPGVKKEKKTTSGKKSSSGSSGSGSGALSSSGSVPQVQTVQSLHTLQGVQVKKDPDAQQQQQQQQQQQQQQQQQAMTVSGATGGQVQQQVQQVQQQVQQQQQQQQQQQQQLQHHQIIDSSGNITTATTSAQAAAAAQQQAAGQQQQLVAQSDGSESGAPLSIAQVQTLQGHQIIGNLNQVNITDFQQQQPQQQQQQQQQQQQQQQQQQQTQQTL

Sequence: CGCGTCATAATTGAGAGCGC (double strand) [TMR-AP1hs·AT = TMR-AT·GAGA]
- Kd [1]: 28 nM
- Kd ([2]; 20 C, 25 nM DNA, apparent): 26 nM
- Kd ([2]; excess calf thymus DNA competitor): 42 nM
